Reference: the supplement of paper PMC10724198
± gives the standard deviation of the averaged measurements.

How the values were obtained:
Saccharomyces cerevisiae [1] = assay: protein stability index of tFT-peptide fusion (C-terminal peptide) (PSI (0-1 scale)); higher = more stable (slower turnover)
Description: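 MPS profiling in S. cerevisiae of the tFT-X12 degron library: putative degron peptides plus stable controls, 12 aa, fused to the C-terminus of a sfGFP-mCherry timer. Cells are FACS-sorted into 8 mCherry/sfGFP bins and deep-sequenced. PSI runs from 0 (unstable) to 1 (stable). Backgrounds are wild type, das1Δ and doa10Δ at 30 °C, and wild type, das1Δ, cdc34-1 and cdc53-1 at 37 °C; 2-3 technical replicates each.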

Saccharomyces cerevisiae [2] = assay: as above; conditions: genetic background: wild type; temperature: 30 C
[3] = genetic background: cdc34-1, temperature: 37 C
[4] = genetic background: cdc53-1, temperature: 37 C
[5] = genetic background: das1 deletion, temperature: 30 C
[6] = genetic background: das1 deletion, temperature: 37 C
[7] = genetic background: doa10 deletion, temperature: 30 C
[8] = genetic background: wild type, temperature: 30 C
[9] = genetic background: wild type, temperature: 37 C
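Note: PSI is a weighted mean of sequencing reads over stability bins, variants kept only with over 10 reads, mCherry proximal and sfGFP distal, peptide attached via GGGS linker.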

Sequence | protein stability index (Saccharomyces cerevisiae [1]; [3]) | protein stability index (Saccharomyces cerevisiae [1]; [4]) | protein stability index (Saccharomyces cerevisiae [1]; [5]) | protein stability index (Saccharomyces cerevisiae [1]; [6]) | protein stability index (Saccharomyces cerevisiae [1]; [7]) | protein stability index (Saccharomyces cerevisiae [1]; [8]) | protein stability index (Saccharomyces cerevisiae [1]; [9]) | protein stability index (Saccharomyces cerevisiae [2])
FLVLFYCTFWVR | 0.162 ± 0.0078 | 0.242 ± 0.032 | 0.222 ± 0.019 | 0.3245 ± 0.0025 | 0.197 ± 0.006 | 0.211 ± 0.042 | 0.349 ± 0.071 | 0.329 ± 0.089
FLVPLSPMLLSA | 0.446 ± 0.011 | 0.451 ± 0.005 | 0.375 ± 0.031 | 0.4942 ± 0.0011 | 0.323 ± 0.012 | 0.347 ± 0.019 | 0.463 ± 0.014 | 0.4 ± 0.019
FMCCFWFFWLGF | 0.522 ± 0.041 | 0.518 ± 0.0095 | 0.421 ± 0.024 | 0.53 ± 0.0084 | 0.451 ± 0.006 | 0.438 ± 0.0098 | 0.501 ± 0.0061 | 0.459 ± 0.031
FNLFWPVSAFVV | 0.506 ± 0.061 | 0.563 ± 0.011 | 0.436 ± 0.03 | 0.5749 ± 0.0047 | 0.211 ± 0.0037 | 0.254 ± 0.0078 | 0.398 ± 0.044 | 0.374 ± 0.019
FNMLFVVRLLYM | 0.37 ± 0.033 | 0.418 ± 0.0046 | 0.334 ± 0.053 | 0.473 ± 0.026 | 0.259 ± 0.027 | 0.257 ± 0.045 | 0.396 ± 0.0043 | 0.365 ± 0.0057
FPFFLLAAPFLA | 0.564 ± 0.007 | 0.621 ± 0.0096 | 0.546 ± 0.019 | 0.6439 ± 0.0013 | 0.16 ± 0.0077 | 0.19 ± 0.026 | 0.295 ± 0.026 | 0.237 ± 0.036
FPFFVFRVWFGA | 0.4642 ± 0.0036 | 0.535 ± 0.01 | 0.414 ± 0.026 | 0.565 ± 0.006 | 0.32953 ± 0.00015 | 0.346 ± 0.033 | 0.502 ± 0.022 | 0.464 ± 0.014
FPPFALLLIIND | 0.475 ± 0.015 | 0.54 ± 0.039 | 0.396 ± 0.023 | 0.581 ± 0.058 | 0.415 ± 0.0098 | 0.421 ± 0.029 | 0.525 ± 0.0097 | 0.406 ± 0.089
FPRQFVYLPLLF | 0.647 ± 0.064 | 0.709 ± 0.025 | 0.555 ± 0.011 | 0.696 ± 0.017 | 0.372 ± 0.018 | 0.402 ± 0.032 | 0.595 ± 0.02 | 0.487 ± 0.011
FQPLELFFVCVF | 0.0866 ± 0.04 | 0.154 ± 0.025 | 0.199 ± 0.02 | 0.235 ± 0.014 | 0.163 ± 0.014 | 0.181 ± 0.023 | 0.212 ± 0.016 | 0.305 ± 0.014
FRCFVLPYFGRF | 0.608 ± 0.032 | 0.699 ± 0.021 | 0.647 ± 0.0081 | 0.7 ± 0.0079 | 0.372 ± 0.037 | 0.37 ± 0.015 | 0.5489 ± 0.0039 | 0.435 ± 0.036
FRDRFLRWNLVS | 0.481 ± 0.073 | 0.676 ± 0.013 | 0.6489 ± 0.0058 | 0.757 ± 0.025 | 0.129 ± 0.026 | 0.14 ± 0.025 | 0.21 ± 0.02 | 0.223 ± 0.022
FRVFYSFLLCLS | 0.194 ± 0.0057 | 0.189 ± 0.01 | 0.228 ± 0.015 | 0.307 ± 0.0087 | 0.178 ± 0.0048 | 0.162 ± 0.0088 | 0.219 ± 0.0085 | 0.22 ± 0.0028
FRVILISACESV | 0.565 ± 0.016 | 0.582 ± 0.011 | 0.403 ± 0.032 | 0.5562 ± 0.0034 | 0.384 ± 0.032 | 0.397 ± 0.019 | 0.5385 ± 0.004 | 0.464 ± 0.0071
FSFPAFTFIVSI | 0.352 ± 0.03 | 0.346 ± 0.006 | 0.336 ± 0.024 | 0.475 ± 0.024 | 0.502 ± 0.031 | 0.329 ± 0.0099 | 0.447 ± 0.035 | 0.4357 ± 0.0022
FSICGFYSLCFG | 0.569 ± 0.028 | 0.617 ± 0.019 | 0.503 ± 0.021 | 0.628 ± 0.013 | 0.4968 ± 0.0046 | 0.512 ± 0.0077 | 0.599 ± 0.023 | 0.492 ± 0.045
FSLLFVRFCFFL | 0.2674 ± 0.00097 | 0.323 ± 0.0039 | 0.256 ± 0.037 | 0.4195 ± 0.0026 | 0.227 ± 0.0074 | 0.248 ± 0.039 | 0.3372 ± 0.0022 | 0.305 ± 0.037
FSLLLSLSLFHC | 0.547 ± 0.053 | 0.555 ± 0.018 | 0.534 ± 0.0069 | 0.549 ± 0.006 | 0.183 ± 0.0059 | 0.2 ± 0.025 | 0.356 ± 0.0068 | 0.31 ± 0.015
FSVLVVYTRLFQ | 0.427 ± 0.064 | 0.452 ± 0.033 | 0.332 ± 0.042 | 0.558 ± 0.013 | 0.306 ± 0.011 | 0.321 ± 0.033 | 0.508 ± 0.012 | 0.414 ± 0.091
FTEFWFFKQMSV | 0.579 ± 0.019 | 0.761 ± 0.015 | 0.618 ± 0.031 | 0.7757 ± 0.0069 | 0.11 ± 0.01 | 0.126 ± 0.022 | 0.137 ± 0.04 | 0.171 ± 0.016

Sequence | protein stability index (Saccharomyces cerevisiae [1]; [3]) | protein stability index (Saccharomyces cerevisiae [1]; [4]) | protein stability index (Saccharomyces cerevisiae [1]; [5]) | protein stability index (Saccharomyces cerevisiae [1]; [6]) | protein stability index (Saccharomyces cerevisiae [1]; [7]) | protein stability index (Saccharomyces cerevisiae [1]; [8]) | protein stability index (Saccharomyces cerevisiae [1]; [9]) | protein stability index (Saccharomyces cerevisiae [2])
FTRWLVYCTPLC | 0.554 ± 0.033 | 0.569 ± 0.0098 | 0.46 ± 0.011 | 0.586 ± 0.0022 | 0.437 ± 0.029 | 0.441 ± 0.012 | 0.567 ± 0.013 | 0.516 ± 0.024
FVFFRFSLLFFF | 0.332 ± 0.022 | 0.344 ± 0.04 | 0.331 ± 0.029 | 0.449 ± 0.0046 | 0.269 ± 0.0034 | 0.225 ± 0.027 | 0.356 ± 0.014 | 0.337 ± 0.049
FVSVAGFIVVVV | 0.47 ± 0.018 | 0.488 ± 0.036 | 0.293 ± 0.048 | 0.5341 ± 0.0027 | 0.291 ± 0.013 | 0.28 ± 0.034 | 0.498 ± 0.0068 | 0.4076 ± 0.00077
FVVGFVCSMVWG | 0.0975 ± 0.012 | 0.216 ± 0.024 | 0.0889 ± 0.026 | 0.252 ± 0.0045 | 0.0599 ± 0.0055 | 0.0702 ± 0.019 | 0.2266 ± 0.0022 | 0.144 ± 0.016
FVVHPARYYLVL | 0.558 ± 0.077 | 0.682 ± 0.019 | 0.595 ± 0.023 | 0.664 ± 0.017 | 0.355 ± 0.0048 | 0.385 ± 0.02 | 0.489 ± 0.014 | 0.4265 ± 0.0029
FVVSCLSWVFLF | 0.429 ± 0.0099 | 0.528 ± 0.04 | 0.434 ± 0.032 | 0.5418 ± 0.004 | 0.101 ± 0.022 | 0.114 ± 0.025 | 0.127 ± 0.026 | 0.175 ± 0.024
FVVWKDVLVMVR | 0.132 ± 0.03 | 0.1451 ± 0.00045 | 0.2 ± 0.032 | 0.286 ± 0.0095 | 0.158 ± 0.0054 | 0.192 ± 0.034 | 0.257 ± 0.0093 | 0.298 ± 0.029
FWCVFVFFVCVG | 0.255 ± 0.042 | 0.354 ± 0.006 | 0.258 ± 0.028 | 0.399 ± 0.013 | 0.231 ± 0.0025 | 0.238 ± 0.023 | 0.349 ± 0.017 | 0.275 ± 0.01
FWGRAGVWRLKG | 0.684 ± 0.044 | 0.759 ± 0.019 | 0.651 ± 0.021 | 0.7821 ± 0.0066 | 0.228 ± 0.0067 | 0.276 ± 0.026 | 0.595 ± 0.022 | 0.334 ± 0.025
FWSARAVVWWCW | 0.506 ± 0.036 | 0.554 ± 0.026 | 0.445 ± 0.021 | 0.567 ± 0.011 | 0.449 ± 0.012 | 0.449 ± 0.027 | 0.574 ± 0.039 | 0.477 ± 0.051
FYFRSSFFTICF | 0.36 ± 0.038 | 0.3875 ± 0.0025 | 0.365 ± 0.033 | 0.46 ± 0.0018 | 0.4318 ± 0.0037 | 0.352 ± 0.014 | 0.446 ± 0.017 | 0.398 ± 0.024
FYPLPASIPDFA | 0.695 ± 0.025 | 0.7541 ± 0.0025 | 0.67 ± 0.017 | 0.74197 ± 5.2e-05 | 0.675 ± 0.022 | 0.6686 ± 0.0026 | 0.72 ± 0.011 | 0.7216 ± 0.0018
FYSLVQAWSKAP | 0.721 ± 0.037 | 0.715 ± 0.01 | 0.648 ± 0.012 | 0.727 ± 0.021 | 0.3898 ± 0.0019 | 0.415 ± 0.027 | 0.627 ± 0.018 | 0.501 ± 0.018
GCGWVFWVVDWG | 0.463 ± 0.017 | 0.566 ± 0.0098 | 0.402 ± 0.028 | 0.563 ± 0.0075 | 0.369 ± 0.01 | 0.398 ± 0.027 | 0.539 ± 0.026 | 0.4431 ± 0.0038
GCVMSVCSLAVS | 0.605 ± 0.019 | 0.624 ± 0.0098 | 0.45 ± 0.027 | 0.5659 ± 0.0049 | 0.453 ± 0.025 | 0.458 ± 0.011 | 0.54537 ± 2.2e-05 | 0.486 ± 0.013
GCYWPKTLGILC | 0.546 ± 0.018 | 0.555 ± 0.02 | 0.408 ± 0.021 | 0.568 ± 0.0092 | 0.346 ± 0.0062 | 0.378 ± 0.025 | 0.56 ± 0.032 | 0.465 ± 0.004
GGFLLRGLFLFL | 0.613 ± 0.032 | 0.652 ± 0.016 | 0.55 ± 0.024 | 0.6623 ± 0.0034 | 0.542 ± 0.025 | 0.52 ± 0.022 | 0.63 ± 0.015 | 0.525 ± 0.049
GGHGGRRRKGVG | 0.36 ± 0.017 | 0.45 ± 0.0053 | 0.414 ± 0.019 | 0.435 ± 0.0098 | 0.409 ± 0.0082 | 0.381 ± 0.0054 | 0.439 ± 0.013 | 0.41 ± 0.046
GGMVRSCLWCFV | 0.675 ± 0.034 | 0.755 ± 0.014 | 0.6 ± 0.011 | 0.754 ± 0.029 | 0.322 ± 0.011 | 0.357 ± 0.018 | 0.585 ± 0.0078 | 0.432 ± 0.01
